From the DeepSol protein solubility set

test: soluble on expression in E. coli; label from the status in PepcDB or PDB records

Soluble on expression in E. coli, not soluble:
MGSDKIHHHHHHMATEIIYMVKDWFEWHDLYKNEPKLQQRLQIVQEYISYSLNLPEPGLIRVVSVCAGDGRDLLGTLSNHPRAKDVYARLVELNPHLVERGQQTIESLGLTKQIEFINGDATLSSNYLGAVPADIVIVCGVFGNLADEAELNRLLANLSFLSKQGAFVIWTRGHSNGIPHSETVRKFFREYGFEEVNFKLTATGDMGVGIHRYLGESLAAPKEQQFFAFTGVPSKAR
MGSDKIHHHHHHMATGSNIRTYFQGSWHEGDAPIIRAADHGAWLGSGVFDGARYFDGMAPDLEAHCARVNRSAEALMLTPTVSTQDMVEIVREGLKAYGPDQAVYIRPMYWGIDGDPTAIIPQADSTGFAVCLEEIPMAPATASATLTTTRFRRPVLEDAVVNAKAGCLYPNNARMLREARSKGFTNALVADALGNVAETATANIFMVKDGEVFTPIANGTFLAGITRARHIKNLRADGVPVHETVLSFADFHAADEVFMSGNMSKVTPVTALDDTQYQIGPIARRARALYWDWAKSTA
MGSDKIHHHHHHMATIDLIVLGIVKQQPKSAYDIQKAVEYRNISRWVKISTPSIYKKVIQLEQKGYIESKTVKNGKMPEKAVYSLTELGETHFLDLMFDTSSKPINILLDFNAVIVNLNSLTPEKQKLCLNNIEENVQELKKTIEENISIKTEVPETAKAVLEQQLVLAQALETWINSLKDNTGN
MGSDKIHHHHHHMATKSLRRQDLEVHLGSTGQVVGRLYLGSGKRSAFSYDERWLRDARFFTLSPDLLPVLSVQHPQEVFFRALEDTAPDSWGERVIRRAHARLRQQDGETPPLEPVDFLMWVDDEARVGALRLFDPHAKVYLRSGATPGHVPPLVELDKVVQAARALEAGTETARDLQYLLGQGTSLGGARPKSSVRDTDGRLALGKFPSQADRRDVIRGEVLAMHLAAKAGIKVAAARVELIGGTAVAIIRRFDRTDDGGRIPYVSAATMLQSDGRDTVHAYTELVDVLLREGADPIADIHQLWRRLVLNFLICNTDDHLRNTGFLYDSRNHGWRLSPAFDLNPMPGDRRESKTWLTEDSGPIESRDMLMEGAPYFRLAAEEAAAIWTEVAQAVGSWRVVARGLGMQGTDLVDFEPAFA
MGSDKIHHHHHHMATLGANASLYSEQHRITYYECDRTGRATLTTLIDIAVLASEDQSDALGLTTEMVQSHGVGWVVTQYAIDITRMPRQDEVVTIAVRGSAYNPYFAYREFWIRDADGQQLAYITSIWVMMSQTTRRIVKILPELVAPYQSEVVKRIPRLPRPISFEATDTTITKPYHVRFFDIDPNRHVNNAHYFDWLVDTLPATFLLQHDLVHVDVRYENEVKYGQTVTAHANILPSEVADQVTTSHLIEVDDYYCCEVTIQWRTLPEPIQ
MGSDKIHHHHHHMATLSKKIDFAIIMSVKNANPNGDPLNGNRPRTDYEGLGEITDVCLKRKIRDRLVEQYVSLKNEEEKKGQAIFVQSDDRKIDGETSLRNRAESEKNGLGKKAFGANAKKDETAKSACEKWFDVRAFGQVFAFGKGNDADGVSIPVRGPVTIQSAFSRDLVSISSTQITKSVSGEGDGKKRSSDTMGMKHRVDRGIYVTYGTMNPQLAERTGFSDKDAAVIKAILPKIFENDASSARPEGSMEVVKVLWWQHNSKSGDYSSAKVHRSLKVNPDGSYIIEPLNGLVPEEIAGF
MGSDKIHHHHHHMAYRDQSLGELAIAIPRATKLFRELNLDFCCGGKQTLSRAAGKKDLNIDELEAQLEKLAAQPSDARDWREAPLADIIAYIIPRFHDRHREQLPELILMAKKVERVHHDKADCPHGLANQLTAIYNELSQHMMKEERILFPMIGQGMGANAAAPISVMEHEHDDAGRDVEVVKELTNGVVPPEGACNTWRALYSGINEFITDLMEHIHLENNLLFPRALRGE
MGSDKIHHHHHHMAYTVLLVTSVNTYKEQLNHPIMSDVGKLLPTKIKRVESATDEHSLIKLVQDANVSGEKISIAGMQHSQGGQTYYPHGTMLDMKGYNKILEFDPEKKRITVQSGATWNDIQKKVNPYGLAVQVMQSQNIFTVGGSLSVNVHGRDIRHEALIDTVESFRLLMADGTVRNVSREENADLFPYVIGGYGLFGVILDVTLKLTNDELYETHTKMLDYKEYTSYFKEKVKKDENVRMHLARISVAPNSFFREMYVTDYTLAKNQNMREEYSKLKEETIIAAPKFLLGLSRYSDWGKDTFWDIQRSYFERTDGKYETRNNVMRSDSAFMEYENPNRTEVLQEYFVPIDFFTEYIDDLRNVLNEEEFNLLNITVRYVEKNENAVLSYAKDDMFALVLLINQGRSEHEIKKTENVIQKMIDVTLKHNGSYYLPYYSYPSKEQLRRAYPRIEEFLQKKKEADPKERFVNLFYREYTK
MGSDKIHHHHHHMCQRAIANIDISKEYDESMGSNDVHYQSFARMADFFGRDMQAHRHDQFFQMHFLDTGQIELQLDDHRYSVQAPLFVLTPPSVPHAFITESDSDGHVLTVREELVWPLLEVLYPGTREAFGLPGICLSLADKPNELAALKHYWQLIERESTEQLAGCEHTLVLLAQAVFTLLLRNAKLDDHAATGMRGELKLFQRFTLLIDNHFHQHWTVPDYACELHITESRLTDICRRFANRPPKRLIFDRQLREAKRLLLFSDNAVNEIAWQLGFKDPAYFARFFNRLAGCSPSQFRQREVPSFLN
MGSDKIHHHHHHMCRWAAYIGPPVHLDEVVCKPEHSLVAQSVHAFECKTQTNADGFGIAWYDSREEPGLYRDTHPAWSDPNLKSITHQVRSGLFLAHVRASTGTATSRNNCHPFTHGCWSFMHNGQVGGFENFRRRADMIIPDELYSARKGATDSEALFLIAIAEGLYEDPKGAMQRAVGRLEALSREFGHTPHMRIGAAFSCGGALYAVRYASDHLAPTVYSSKSADGTGRLVVSEPLHKGECWEAVPAGSFCRFTADDTEIEDFVPQF
MGSDKIHHHHHHMCTVQSNITSHVKKLEEELGVILLNRHNPVTLTNAGHQLHSYAVQMIALHNKAKTIFREGDIDPNETIRLGSMETTAAIRLPQLLNECMQQHPNLPLELQTHPTGYLLNAVQQGEVDCAFVASKYVIPELYSFPVWQEQLVLVCPKQQIDFPDIATLAKTRFIAFRQGCSYRHAIELFLNDHSVPPSQIMEMGSLDGIVSCVELGVGFALLPKSYLNKVADKVSLSCFEINTESAHFTTYLVAQPPETWGSNLKQFICFIEQQFIQKCA
MGSDKIHHHHHHMDAKTIIENRFQSQKLIQTAWSDSPERIVFHFGAMQSQNYGQSLWAVGSRMTTPSEESVEQAINNGEIIRTWLLRGTIHLFSAKDYHWMMDLIAPTIDKICKPYRAKLGLTDEVLHKATEVVSEIVSEQAVTRKDLAAHLATKDLPSAGIPFAQLLVYLSSRKVICSGPNETFRNTMHIPADTNHFTREEAIKELAKRYIQSHAPATLKDFCFWSGLTVTDAKIGLADMPKMGDYYITTLVENGTMPTTIPLAGFDEWIIGYRDRSVVLPEIWHDEIMTKNGIFRPAIITEGKVVGKWEKPKKRAELDGDFWDRYIQFRNML
MGSDKIHHHHHHMDAMPSTTAITVSQLSRLVGLPGVPVIIDVRIDEDFDADPRLLPASIRRDFKTVSTWAPDFAGKPVVVVCQKGLKLSQGVAAWLRHEGIPAESLEGGFEAWREADGLLVSTDKLPPRDEKGRTVWVTRSRPKVDRIACPWLIRRFVDPRAVFLFVEAAEVPAVADRFQAVPFDIDNVFWSHRGERCTFDTMIEEFGLESTALDRLAAIVRAADTARLDLVPQAAGFLAASLGLSRMFRDDLEQLEAGMLLYDAFFRWCRDATEETHNWPSAGKPS
MGSDKIHHHHHHMDEVESNFLTVGTLNRYLSAKFVHDPYLKQVSLTGEIFGYKISSGSAYFELRDEDESSIRAYVSPTILRGFPFDFKSGDKVNLVADVRLYGKRAYASLFIFSMQPAGLGELYLKLAELKNKLTKEGIFNRPTKELNYFPKKIAVITSKTGAVIHDISSTIGHRNPNLKIELFESSVQGDSAVKELVSAVKKADQSDADAIIIARGGGSTLDLWPFNDEQLVRLLSSLSKPVISSIGHETDVTLTDLAADYRVETPTAAANKVTPAILDYRNNLDQLTALMSVDIKQLLQKNLNRFEYLANSPALKSFDQVFFNHEQKLQNLNLRLANSFAGEFQKNIQQFANLTAKLDALSPLKVLDRGFSLTFKGDRLIKNAQQLKEKDHIKILFAKGSALAEIKEISDDRRI
MGSDKIHHHHHHMDFKELFPEVITKQEVKQSEDYIIVEQDGHVLHFPKSSLTKRELYLLQMTPSLEDASSVDSQNPWYRYLVEGRGRLPQSHSAVQFIFIEHQFTLSEELKDFLSPLVINVETIMTINQTQSVMILNQDNFFNATELLTDILPTIENDFNTRLRCYFGNSWTHLQAVDWKELYEEEYKLFTLFLSHKAEQHYCRFPKMALWALANQSPMPSIKAKCLQHILDTSDTSAIIKALWQEQGNLAKTAKALFIHRNSLQYKLDKFTQSSGLNLKILDDLAYAYLISMDT
MGSDKIHHHHHHMDFSDEKMPFLADAVDRVRVEECFRQCLVIAQNFRVQNIRVIRHKLGRRCLIEYELMDDVGEIITLIGKVRAKGTDFHSYELQKSLWESGFADDSADGISVPEPVGIIPEWQMWLQRRVEGVTATQILSQTNGIFPAKLIAEAAYKLHQANIIPRRSHRMSDELRILHERIPLVMEQYPQWQRRLERILLASDDLGANTPELKLCGIHRDFYPDQVIMNNSRLYLLDLDLYCAGNPAVDIGNFIAHLQEYSLRTVGNPQALQEYEDILKTRFLQLTGDEFSLAIQAYTILTLVRHIYISTLFPERRPFTAALLHLCEQRLNITHNS
MGSDKIHHHHHHMDGLLNPRESSKFIAENSRDVFIDSGGVRRVAELLLAKAAGPELRVEGWKALHELNPRAADEAAVNWVFVTDTLNFSFWSEQDEHKCVVRYRGKTYSGYWSLCAAVNRALDEGIPITSASYYATVTLDQVRNILRSDTDVSMPLVEERHRILNETGKILLEKFGGSFLNCVRESENSAQKLMHLVVESFPSYRDVTLFEGKRVSFYKRAQILVADTWSVLEGKGDGCFKDISSITMFADYRLPQVLAHLGALKYSDDLLKKLLKGEMLSYGDRQEVEIRGCSLWCVELIRDCLLELIEQKGEKPNGEINSILLDYYLWDYAHDHREDMKGIPFHRIRCIYY
MGSDKIHHHHHHMDISIARTFLEVVKTGSFVNAAANLNISQTAVSARIRVLEEQLDRPMFVRNKAGARLTPAGEQFFRFATSLVQVWEAARTTVALPPGREAMVTIGAELSLWNPLLKHWLLWMRRECASVAIRTTIDRSERLMELVQDGSLDAAVLYGAPNRPGTLTELLFEEKLVLVRTTALSQPPGPEDLVGIDWGEDFAGSYRAAFPGGRNPVVAISYGPLALDYILEVGGSGYFRQGFVRPYLVDGRLELVPNSPEFAYPAYLVSSAKADRSMLDRIRAGLRAAASSAGV
MGSDKIHHHHHHMDKLASEYKVLIVDDVPTNVMLVQAILKKEGYTLLTCDSGTKALRIANEKHPNLILLDIMMPEMDGYEVLQHLKSNPETTDIPVIIMSALSDMQSIVKGYQLGATEYVTKPFQREELVKRVAHRYELYSIKRIKAELENTIESRDTLYSVIAHDLRSPLGSLKMMNNAILMMVDKERVGDEVYEMIQMMNKTSEEIFLLLDNLLKWAKNRLNKQHVYKQQTDINSIIDSTAEMYVPMAAQKGVKIILENLDKELVGLVDIDMLKTIIRNLISNAMKFSFEGGTITLSSRSEGDFVTVSVKDTGKGIKKEDQDKLLKQDSHFTTYGTKNEKGSGLGLMLCKDFVELHGGKLWFESEGEGKGTTFLFSMKALNQEA
